Assay: soluble fraction after stress (log2 fold change); higher = more stays soluble; pooled small domains, quantitative proteomics
Conditions: stress: pH 4
How it was run: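 Following acid stress at pH 4, the amount of each small protein domain still soluble was measured in pooled custom libraries by high-throughput quantitative proteomics. Its fold change, on a log2 scale, is higher when more of the domain stayed soluble. This fold change is taken as a measure of aggregation propensity.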

Going from “HMKISDLPAAQVYREIVHAWPKAAAYADLAPINNGGMQRWRDVVHEWVLRGYNPANLRGMLEWYKAGIPTR” to “HMKISDMIETNLKFLRGKHSISQAELAESLGIPRTTLSAYERGFVEPNIELMLKMAKYFNVSLDDLIAYN”, the “soluble fraction (log2)” value falls from -0.132 to -1.3.

“HMKISQSRKAGKLVLESELKRGGVSLDQYRGGRMSRILELIGVKSLNELLTDLGTGKKTGALVAERFFSGL” and “HMKITFNPVSSGRLDIILAEKTGYTRSYVKQLVEKQAVTINGEAAKKSGQNVKAGDEIALDEP” are within 0.2 log units of each other in “soluble fraction (log2)” value: -0.036 for the first, 0.149 for the second.

Going from “HMKITIDSVERDETFRLIWGTGWKPKNKIQELAAIQAKKNGLGRMNEVAGLAAWRGIWQQVAEQVAQEVL” to “HMKITKIWFTADHIFGRDEEGKEYSQSLLWYPKLSAASDEERSQYTFGYDGIHWRSLDEDISFESF”, the “soluble fraction (log2)” value falls from -0.843 to -1.52.

First: HMKIVFGHVKWFDIDKGFGFLVLEDEGGDVLLHANVLKNFGRTSVSEDTKIEFEFLETDKGRQVSTIYNIL
Second: HMKIVQDIAFSDFLNEVEKDNVLDVNIKGDLINGNLADGRKFKTYTPYDPNLIEKLSNKNVTINVEPYN
The “soluble fraction (log2)” value of the first is lower: -2.19 for the first, 0.00986 for the second.

“HMKKAENEKLNIPYDVTEFLASSIKDDIRMMEGAMVKLLALSSLTKQDITQSLAKRVIQDVLGSSA” and “HMKKAMIISTKRGTPAAELDKIIREFEAKGLSVTMIRGTDYNVFGLVGDTTVIDEKQVRANPYVENVQRV” are within 0.2 log units of each other in “soluble fraction (log2)” value: -0.451 for the first, -0.325 for the second.

First: HMKKATYDVMVREALVSFKKKGATLQSIKKKIKADYAIEANATAVKSAIQKGMEAGSIRKSYDLYFFMD
Second: HMKKDDLKQINGIGTTIEKKLNEIDIYNFYQISNLSKEDIETISEKIKTFPGKIERDNWVGQAQELL
The “soluble fraction (log2)” value of the first is higher: 0.15 for the first, -0.844 for the second.

First: HMKKIFIDAPLDTMITIPKDTTHHLLTVFRHKMEKPVLVGGSDGRTGVYQIQDVVDGEASAKLVGDIQ
Second: HMKKISAKQQQILDYISSYSLEHGYPPSVREIGAEMGLRSPSTVHAHLKKLQEAGYLEPNEHKSRALTP
The “soluble fraction (log2)” value of the first is higher: 0.318 for the first, -0.0896 for the second.

“HMKKITTANPLDINRATLAQLDTLPGIGPVTAERIIAYRSKVGRINSLDELKKISGLGGMKFEEIKPLLRV” and “HMKKKLPRYLQEQKYGNGMVFYRYNPTARYIDEGIVTRTNLGSDLSIAKKKANEFNKLIDAFLQQQSE” are within 0.2 log units of each other in “soluble fraction (log2)” value: -0.126 for the first, -0.0245 for the second.

Going from “HMKKMSFKEAFLKYVEIKDNPYNMESVKMLVSLQPLIVKAYSILGVDKVRRLNYVKTKIQDAIINGD” to “HMKKNLELGLLPHEVKSILGEPDFIDTITDIDGIRYDMWSYTKLNVTKRLYFEDLFLVRMEE”, the “soluble fraction (log2)” value falls from 0.0648 to -1.42.

Going from “HMKKNNTTPIPKTLNYVNIKGLSNEAVERLNKHKPSTLGQASRLEGITPAATSLISIAIKKNQLLEKAES” to “HMKKPAERRKELVDAAAHLFAEKGYENTSVRDILDAVGGAPGMFYYYFKSKQDIYVAVMEDF”, the “soluble fraction (log2)” value falls from 0.123 to -1.1.

First: HMKKPANLISEDRMVEVLYDVIIINTAKGVNKQLLQNNINNPLNYIYRSHGIDSLQFAESNAYYTS
Second: HMKKSGFFSAGDRIQLTDNKGRQYSFNITEGKEFHTHQGFIKHDDLIGMPEGSVVSINSTTGVVQKFMAF
The “soluble fraction (log2)” value of the first is lower: -0.798 for the first, -0.584 for the second.

Going from “HMKKSIRIFELMKAKVAAEIFDQMILEGKIEDVFDIIVRLKDSNVSNIMKTMSVENSSRLVQKLERYNKD” to “HMKKVRIPDDPEEAYRKALKTAMNIVGYKDNTEFTLREKLSERGYSGETVDAVAEFMKSKGYV”, the “soluble fraction (log2)” value rises from -0.626 to 0.00228.

First: HMKKVTMQDIANILNISRVTVWKVLNNQPGVSKQLRDQILLTAKETGYLKPGQEAEAYLEENNIYFEG
Second: HMKKYDIKEAQEIAEINRIPGLVTTSHGRRVYFDPKIMQYVSEEQIVKKYGQKTVKMLDQWYVSNILNK
The “soluble fraction (log2)” value of the first is lower: -0.344 for the first, 0.419 for the second.

Going from “HMKKYLIIDAANEKIIFKIIDNNKTYTNDYENSRKNFDRFAVLLFNFLNKNMISFDTIDKAL” to “HMKLARGEFEIMAKFIKEISGISLEQNKTYLIESRLSDLAESEGVKTFSDFFFKAKFNKILKEKIIDAI”, the “soluble fraction (log2)” value falls from -0.19 to -0.957.

“HMKLHFTINGVHYTWYKQFIRGIQIRELGNIPREDELYLDLPDGWKDDFIEDDEIVDLARPGVEHFISRAK” and “HMKLIIVPNLVGQSRRSVEISLQQIGLRIDTVYTEFNPDYPKGTVAWQFPKSGDHIKKGMGLQITVSQG” are within 0.2 log units of each other in “soluble fraction (log2)” value: 0.321 for the first, 0.22 for the second.

“HMKLINEDLNNEIVFEENKVNLLVIENKKKFVQFIQEIIKQINGDEGKFSLFDINTELKIHDKIDII” and “HMKLIPLTDMRGQLRSGAPLPWGVRDAQGNLLLGKGHVIASDDMLEALLARGMFVDAEEAKAARG” are within 0.2 log units of each other in “soluble fraction (log2)” value: -0.0802 for the first, 0.105 for the second.

Compared with “HMKLISVAVMRASDAAEIAGGTDSKTLMYRAGLGLFQSWDWHGKIDIVTGSGNNAGDGYVLALLL”, “HMKLNKRQYAYQVIRSRILDGTYVPGQRIIIDQIAKEVNSSHIPVREAIHQLESEQLIDYEPNIGAIVKG” is higher in “soluble fraction (log2)” value: -0.548 for the first, 0.181 for the second.

Compared with “HMKLSALRDKIKEHLLRQIQNGELQVGKTINLAALSRVTGISVTPIREALTQLEQAQVIQAVPNRGFVVA”, “HMKLSIGGTIEKLRRNKGLSHQQLANALGVTPDTVEKWEINAAYPDITLLSPIARLLGTTLDALLMF” is lower in “soluble fraction (log2)” value: 0.184 for the first, -0.828 for the second.

First: HMKLSKLTKPELDEIFRNANFTEEEEKVFWLLARGKSLEQISAKTFLPIATVNRRVKSIKDKIG
Second: HMKLTKPKLIQLIHIAKSKLNMDELSYRVLLDNLTGKTSTTKMTVGELLKVYESMKDKGFKPQV
The “soluble fraction (log2)” value of the first is higher: 0.34 for the first, 0.104 for the second.

Going from “HMKLTTRQTEIINIVKAEQPISGEKIAQNLGLSRATLRNDLSILTMTGLLDAKPKVGYFYTGQ” to “HMKLVESALSILEEAVDRDFHGNLGDAARYFDIPYQTIYSWLKSRKRVPSLRALEPVLEKLGVSFTT”, the “soluble fraction (log2)” value falls from 0.0805 to -0.479.

Going from “HMKLVTIPNVIGKTKEDAMKTLKDLGVTVTVETKESEKDDGTVIAQSKAEGTKLTAGENVTITVSKKKK” to “HMKMATITKRTNPSGAVVYRAQVRVKREGYPPYSESRTFSKKSLATEWAKRREFEIETNPDLLFN”, the “soluble fraction (log2)” value rises from -0.487 to 0.0738.

“HMKMLEINDNDSVGLKNLKTQYNHNQKVIENFQLEINKVINDGELPDKYLLDGMEKYQKLNMQIMSTIEKQ” and “HMKMPNGYGSVYKLSGNRRKPWAARVTDGWVNDTKTKKSKQKYKFIGFYETRKEALLALADYNANP” are within 0.2 log units of each other in “soluble fraction (log2)” value: 0.221 for the first, 0.22 for the second.

Compared with “HMKMSLKENLLELLQKSSGEFLSGERAAETLGVSRTAVWKAVTSLKNEGYNIESVTNRGYRFS”, “HMKNANGYGSITKLKGNRRKPYMVRITVGRDENGFPIRKVLGYYSSKANAVAALSDYNREPYDI” is lower in “soluble fraction (log2)” value: 0.395 for the first, -0.281 for the second.

Going from “HMKNENSLLVSRLAEEKIINRAKLVLMEYLKLSEPQAHRYIEKQAMDLQISRAEVAARVLETYE” to “HMKNEVENLSYMINRIIEYRDLNNLSNKNLANKIGISEALLSYILNGRRKLSKEIQRKIALFLLND”, the “soluble fraction (log2)” value falls from 0.101 to -0.337.

Going from “HMKNFAPVWGEEGAEFGKEVDTGFRLRIVEKEKDVNDLFEVIQKHTIQSQWKPGSTGTESIYKRI” to “HMKNHIEERRKARGMTQQQLASELGVSRQTIISLENGKYNPSILLAHSIARLFGERIEDIFILR”, the “soluble fraction (log2)” value rises from -1.35 to -0.354.

Compared with “HMKNINTNIGKNLKRIRKLRGLTIDALATSSGVSKSMISEIERGIRNPSITIIWSLANALKTPLNYFLKE”, “HMKNKFYEEFSDYIFKHTGIHYAEANYYQLDARINKLMKFLETSDENDVLKAIQGGAVKDQRVHQMIVDLA” is lower in “soluble fraction (log2)” value: no less than 0.43 for the first, -1.27 for the second.

First: HMKNKRERLGIISEILRMQVIGSQEELLDILRAKGYDVTQATLSRDLKVLKVAKTPLSNGAYKYVLPPQ
Second: HMKNLSQAEFMYLFKILAFGSTDPDNHPEMAATGMEIAKMLQGLLLSGNVLADILRKNQNVQFWL
The “soluble fraction (log2)” value of the first is higher: no less than 0.43 for the first, -0.0785 for the second.

“HMKNNITFSEFLHEVDNGRVIKVNIQGNNITGILADGKSFNTYTPNDPSLIEKLTSKGVSISATPI” and “HMKNNLKGSPIIIAGGYGVGSKENFNLLFDLAKVLNAEVGASRAAVDAGFVEHDRQIGQTGVTVRP” are within 0.2 log units of each other in “soluble fraction (log2)” value: 0.127 for the first, -0.0469 for the second.

Compared with “HMKNNYQYIVDQIKQLILDGELIVGDRLPSERDLSEMYQVSRASVREALKALETIGLLESRHGGGNYIVNH”, “HMKNQIGFKIKNARRKASISQADLSAKLGISSSYLNLIESGKRNVNVDLLLKVSDVLNIELKDLSK” is higher in “soluble fraction (log2)” value: -0.68 for the first, -0.437 for the second.

Compared with “HMKNTYTVVSGDTLWGIASRKLGGGSNWTKIYDANAATIESVANRRRGGRGSDHGHWIYPGTVLTI”, “HMKNYYRILGLNIDAEYEEIKAAYRILAQRHHPDKGGAAAEFRLIQEAYDILSNPLTKRNYDADLLATLN” is lower in “soluble fraction (log2)” value: 0.216 for the first, -1.08 for the second.

First: HMKPDMAVIVGSRTLTFATTTDRQILVLRTDGTMVNRLSMKAGETRTITLPAGVYIVNGKKIIV
Second: HMKPFSLESYKAFVVKRLGLFPETSSAQMHDWLKEEYPDFPLITPRTVYNFVMKIRQDYGIAKV
The “soluble fraction (log2)” value of the first is higher: 0.22 for the first, -0.732 for the second.

Compared with “HMKPFVVVPIDQVRVGMFIQLDLGWMQHPFPVGSFRVASEAQIDTLRSLDLESVRYLPAKSDPAFQQP”, “HMKPGNFILDLLRTYGQKGTSAQNLMSSSRMFNFSENLIRVTLSRLAARGLIENFERGHYRLAE” is higher in “soluble fraction (log2)” value: -0.986 for the first, 0.0573 for the second.

First: HMKPGTIVTGVVVDIKSDVVVVNAGLKSEGIVPIEQFRNDRGELEVAIGDEVKVALDSLENGFGETVLSRE
Second: HMKPQKRYLFEEVLTFLKHNSEKSFNYKQLGAAMEISNESDRFTLLETLEELKHQGFVVEKEIGKYQAKE
The “soluble fraction (log2)” value of the first is lower: -1.21 for the first, 0.37 for the second.

Going from “HMKPRVTVVTLGVDDLERAVRFYAEGLGFPTEGIVGREFEFGAVAFFDMQPGLRLALWPRRSLAHDSGLP” to “HMKPSISKIYALWGVLQRSGKIKSQDKAALDAFVRKYTGVDHVKWLDESQARKIIEILKQMIA”, the “soluble fraction (log2)” value rises from -0.328 to 0.104.

With “HMKPSKTDEAEYWLMERLEEGPQPAGDLIRIGEEFGYTPKILRDAGERFNMERYKDGLDHWMWKLPN” the “soluble fraction (log2)” value was 0.349.

— the domain aggregation screens of Martell et al. (2025)
